From US20260207767A1 (ANAVEON, published 2026)

Key:
[1] = molecular target: T1, recombinant hPD-1 (construct not stated) (human, UniProt Q15116 25-167, limits assumed); experiment: ELISA
T1 construct: also called huPD-1; Human PD1

[2] = molecular target: T2, recombinant cynoPD-1 (construct not stated) (cynomolgus monkey, UniProt B0LAJ3 25-170); experiment: ELISA
T2 construct: not shown: probably His as elsewhere

[3] = molecular target: T3, human PD-1 expressed on cells (human, UniProt Q15116 25-288); experiment: flow cytometry, CHO-S hPD-1
T3 construct: whole, on cells; cell line named under assay; also called CHO-S hPD-1; Raji PD-1
T3 sequence (Q15116 25-288): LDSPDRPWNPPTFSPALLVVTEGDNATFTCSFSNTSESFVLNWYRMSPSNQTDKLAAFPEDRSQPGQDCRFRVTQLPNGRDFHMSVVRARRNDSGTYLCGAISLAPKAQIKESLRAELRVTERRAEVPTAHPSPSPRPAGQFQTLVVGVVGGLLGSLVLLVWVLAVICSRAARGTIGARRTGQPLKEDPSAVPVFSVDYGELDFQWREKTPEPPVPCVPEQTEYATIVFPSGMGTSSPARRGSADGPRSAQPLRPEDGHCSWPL

[4] = molecular target: T4, hPD-1 Avi-Tag Biotin (AcroBiosystems PD1-H82E4) (human, UniProt Q15116 25-167, biotin on Avi-Tag); experiment: SPR, Ab captured, PD-1 analyte
T4 construct: bought; also called human PD-1
T4 sequence (Q15116 25-167 limits assumed): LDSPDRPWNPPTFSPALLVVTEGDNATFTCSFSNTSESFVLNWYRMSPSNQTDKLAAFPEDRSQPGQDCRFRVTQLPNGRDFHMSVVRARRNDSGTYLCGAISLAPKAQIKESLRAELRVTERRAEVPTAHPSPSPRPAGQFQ
Method: Anti-human Fc IgG (Jackson) was immobilized on amine reactive CM5 chips (GE Healthcare) using 1×HBS-EP+ running buffer (GE Healthcare). The test antibodies were captured at flow rate 10 μl/min with 30 s contact time. […] Regeneration was carried out with 10 mM Glycine-HCl, pH 1.5 at flow rate 10 μL/min. This protocol is to be used, unless stated otherwise, in determination of Kd wherever used to define the KD of antibodies specified herein, with adaptions where necessary with regard to the nature of the interaction partners. […]

[5] = molecular target: T5, cynomolgus PD-1 expressed on cells (cynomolgus monkey, UniProt B0LAJ3 25-288); experiment: flow cytometry, CHO-S Cyno-PD-1
T5 construct: also called CHO-S Cyno-PD-1; 293:cyPD1
T5 sequence (B0LAJ3 entry or part of it limits assumed): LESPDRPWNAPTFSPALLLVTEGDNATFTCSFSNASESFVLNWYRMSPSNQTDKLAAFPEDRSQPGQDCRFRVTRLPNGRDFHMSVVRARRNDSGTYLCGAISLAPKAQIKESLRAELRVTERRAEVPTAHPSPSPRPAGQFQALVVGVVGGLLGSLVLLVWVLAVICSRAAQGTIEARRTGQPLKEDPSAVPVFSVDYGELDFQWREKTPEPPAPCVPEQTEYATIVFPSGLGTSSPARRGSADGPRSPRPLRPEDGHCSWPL

[6] = molecular target: T6, cynoPD-1 His (AcroBiosystems PD1-C5223) (cynomolgus monkey, UniProt B0LAJ3 25-170); experiment: SPR; second ka column, taken as cynoPD-1
T6 construct: also called cPD-1; cynomolgus PD-1 His-tagged
T6 sequence (B0LAJ3 entry or part of it limits assumed): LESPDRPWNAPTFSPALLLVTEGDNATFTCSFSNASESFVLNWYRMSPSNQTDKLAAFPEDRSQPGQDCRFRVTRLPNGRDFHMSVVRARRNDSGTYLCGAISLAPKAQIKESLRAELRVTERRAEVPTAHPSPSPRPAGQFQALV
Method: Anti-human Fc IgG (Jackson) was immobilized on amine reactive CM5 chips (GE Healthcare) using 1×HBS-EP+ running buffer (GE Healthcare). The test antibodies were captured at flow rate 10 μl/min with 30 s contact time. […] Regeneration was carried out with 10 mM Glycine-HCl, pH 1.5 at flow rate 10 μL/min. This protocol is to be used, unless stated otherwise, in determination of Kd wherever used to define the KD of antibodies specified herein, with adaptions where necessary with regard to the nature of the interaction partners.
Every position in the antibody VH and VL-CDRs was mutated by PCR using a mutagenic primer containing a degenerate codon NNS at a specific CDR position, introducing a combination of all 20 amino acids. The library of single mutants was screened by scFv capture ELISA using a redundancy factor of 4 (on 96-well plate er position). Clones displaying ≥2× ELISA signal compared to the wild-type scFv were sequenced, and clones with unique sequences were re-grown, re-screened by capture ELISA and ranked by dose-dependent ELISA on human and cyno antigens, and by FACS using human antigen expressing cells. Affinity improving mutations were used to design a combinatorial library using the Kunkel method. The library was screened by scFv capture ELISA using the redundancy factor of 4 (4× number of combinations). Clones displaying ≥2× ELISA signal compared to the wild-type scFv were sequenced, and clones with unique sequences were re-grown, re-screened by capture ELISA and ranked by dose-dependent ELISA on human and cyno antigens, and by FACS using human antigen expressing cells.

T1 sequence (Q15116 25-167 limits assumed): as the sequence (Q15116 25-167 limits assumed) above

B1: XVT458-z2-m1 (antibody, V domains shown)
VH: QVQLVQSGAEVKKPGASVKVSCKASGYTFTNFYIHWVRQAPGQGLEWMGSIYPNYGFTAYNQKFKDRVTMTVDTSTSTAYMELRSLRSDDTAVYYCARGYSYAMDYWGQGTTVTVSS
VL: DIQMTQSPSSVSASVGDRVTITCSASQGIWGDLNWYQQKPGKAPKLLIYHTSQLHSDVPSRFSGSGSGTDFTLTISSLQPEDFATYYCQGYSKDLLTFGGGTKLEIK
notes: IgG format; also called z2-XVT458-m1; z2_XVT458m1
For B1, the EC50 [1] was 0.083 nM, the “Max OD” value [1] was 3.39 OD and the EC50 [2] was 0.087 nM. For the same binder, the “Max OD” value [2] was 3.58 OD, the EC50 [3] was 1.5 nM and the “Max MFI” value [3] was 41000 MFI. For the same binder, the Kd [4] was 0.148 nM, the koff [4] was 3.28e-05 s⁻¹ and the kon [4] was 222000 M⁻¹ s⁻¹. The “Max MFI” value [5] was 70 MFI and the kon [6] was 185000 M⁻¹ s⁻¹.

B2: XVT458-z2-m5 (antibody, V domains shown)
VH: QVQLVQSGAEVKKPGASVKVSCKASGYTFTNFYIHWVRQAPGQGLEWMGRIYPNYGITAYNQKFKDRVTMTVDTSTSTAYMELRSLRSDDTAVYYCARGYSYAMDYWGQGTTVTVSS
VL: DIQMTQSPSSVSASVGDRVTITCSASQGIYGDLNWYQQKPGKAPKLLIYHTSSRHSGVPSRFSGSGSGTDFTLTISSLQPEDFATYYCQAYSKDLLTFGGGTKLEIK
notes: IgG format; also called z2_XVT458m5
B2 was tested, and the EC50 [1] was 0.051 nM, the “Max OD” value [1] was 3.42 OD and the EC50 [2] was 0.056 nM. For the same binder, the “Max OD” value [2] was 3.58 OD, the EC50 [3] was 0.84 nM and the “Max MFI” value [3] was 42400 MFI. The Kd [4] was 0.787 nM, the koff [4] was 9.77e-05 s⁻¹ and the kon [4] was 124000 M⁻¹ s⁻¹. For the same binder, the “Max MFI” value [5] was 335 MFI and the kon [6] was 111000 M⁻¹ s⁻¹.

B3: XVT458-z2-m2 (antibody, V domains shown)
VH: QVQLVQSGAEVKKPGASVKVSCKASGYTFTNFYIHWVRQAPGQGLEWMGRIYPNYGFTAYNQKFKDRVTMTVDTSTSTAYMELRSLRSDDTAVYYCARGYSYAMDYWGQGTTVTVSS
VL: DIQMTQSPSSVSASVGDRVTITCSASQGIYGDLNWYQQKPGKAPKLLIYHTSSLHSGVPSRFSGSGSGTDFTLTISSLQPEDFATYYCQAYSKDLLTFGGGTKLEIK
notes: IgG format; also called z2_XVT458m2
For B3, the EC50 [1] was 0.076 nM, the “Max OD” value [1] was 3.34 OD and the EC50 [2] was 0.086 nM. The “Max OD” value [2] was 3.56 OD, the EC50 [3] was 1.15 nM and the “Max MFI” value [3] was 42800 MFI. It also gave a Kd [4] of 1.24 nM, a koff [4] of 0.00019 s⁻¹ and a kon [4] of 153000 M⁻¹ s⁻¹. The “Max MFI” value [5] was 367 MFI and the kon [6] was 127000 M⁻¹ s⁻¹.
